This is an account of results in article PMC5760045, “The centrosomin CM2 domain is a multi-functional binding domain with distinct cell cycle roles” (PLoS ONE, 2018).

The target in data set [1] is CM2 Δ1130–1148 (Drosophila melanogaster) (UniProt P54623). In words: SEC-MALS; KW-802.5 size exclusion column with inline MALS and refractive index detectors; 50mM HEPES pH 7.0, 200mM NaCl, 1mM DTT; dimer constructs also at submicromolar concentrations (1μM and 9μM for aa1074-1148). (In gel filtration, larger molecules generally elute earlier.)
Data set [2] has as its target centrosomin CM2 aa1090-1148 (monomeric CM2) (Drosophila melanogaster) (UniProt P54623). The data set can be described thus: NMR titration; 2D [15N,1H]-HSQC of 100μM 15N labeled monomeric CM2 with 18μM CaM; 2mM EGTA added in place of 2mM CaCl2; 300K; 20mM PIPES pH 6.8, 140mM NaCl; apparent affinity.
Data set [3] concerns the molecule itself. In words: SEC-MALS; KW-802.5 size exclusion column with inline MALS and refractive index detectors; 50mM HEPES pH 7.0, 200mM NaCl, 1mM DTT; dimer constructs also at submicromolar concentrations (1μM and 9μM for aa1074-1148).
In data set [4] the target is T1, GB1-CNNLZ (CNN aa490-567 fused to the GB1 solubility tag) (Drosophila melanogaster, UniProt P54623-2 490-567).
T1 construct: centrosomin (CNN), Drosophila melanogaster, residues 490-567 with the leucine zipper, the same fragment as in the crystal structure 5MWE; The introduction gives aa490-544 for CNNLZ of Feng et al; the results give aa490-567 for the fragment used here; also called GB1-CnnMD; source: E. coli, purified (NiNTA, size exclusion)
T1 sequence (looked up): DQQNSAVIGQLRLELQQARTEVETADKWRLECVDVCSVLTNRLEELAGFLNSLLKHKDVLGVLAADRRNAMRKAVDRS
The data set can be described thus: NMR titration; 2D [15N,1H]-HSQC of 100μM 15N labeled CM2 with unlabeled partner added; 300K; 20mM PIPES pH 6.8, 140mM NaCl, 0.01% NaN3, 5% D2O, 2mM CaCl2; 800 MHz. The conditions noted are these: both partners purified.

With “CM2 Δ1130–1148 (from UniProt P54623-2 1-1129) (domain or fragment)”, in data set [1], the stoichiometry N (as a rule, a count of units in the complex or per binding partner) was found to be 2.
With “calmodulin (from UniProt P62152 1-149) (natural protein)”, the reduction of the apparent affinity without calcium (2mM EGTA) against 2mM CaCl2 in data set [2] was in the range of 50 to 70%.

B1: centrosomin CM2 aa1064-1148 (longer dimeric CM2) (domain or fragment, Drosophila melanogaster, UniProt P54623-2 1064-1148, looked up)
chain: ESTSPDSKSNVATGAATVHDCAKVDLENAELRRKLIRTKRAFEDTYEKLRMANKAKAQVEKDIKNQILKTHNVLRNVRSNMENEL
notes: centrosomin (CNN), Drosophila melanogaster, residues 1064-1148, from cDNA LD19135; source: E. coli, purified (NiNTA, cation exchange, size exclusion)
On to B1, for which, in data set [3], the “stoichiometry N” value is 2.

B2: centrosomin CM2 aa1090-1148 (monomeric CM2) (domain or fragment, Drosophila melanogaster, UniProt P54623-2 1090-1148, looked up)
chain: ENAELRRKLIRTKRAFEDTYEKLRMANKAKAQVEKDIKNQILKTHNVLRNVRSNMENEL
notes: centrosomin (CNN), Drosophila melanogaster, residues 1090-1148 (start of the predicted coiled coil to the C-terminus), from cDNA LD19135; 15N-labelled (or 13C/15N) in the NMR experiments; also called CM2 monomer; truncated CM2; source: E. coli, purified (NiNTA, cation exchange; non-labeled protein also size exclusion)
B2: the binding result in data set [4] is “binds”.

B3: centrosomin CM2 aa1074-1148 (minimal dimeric CM2) (domain or fragment, Drosophila melanogaster, UniProt P54623-2 1074-1148, looked up)
chain: VATGAATVHDCAKVDLENAELRRKLIRTKRAFEDTYEKLRMANKAKAQVEKDIKNQILKTHNVLRNVRSNMENEL
notes: centrosomin (CNN), Drosophila melanogaster, residues 1074-1148, from cDNA LD19135; 15N-labelled in the NMR experiments; also called CM2 dimer; minimal dimer construct; source: E. coli, purified (NiNTA, cation exchange; non-labeled protein also size exclusion)
Turning to B3, in data set [3], the “stoichiometry N” value came out at 2.
